Assay: label from the status in PepcDB records

Sequence | protein production
MKFGETFDMVLSDVRGKKIHASVKREHLNRFERLIVPGEWRAIENFGLTYATGQFKATDHRYKMGFMAQTRVVRIDPLSDSYFLSLTAFNDVLNGGLNQNYLIDVVGQIVNVGEMETIDVHNQPTKKIDFELRDQKDERLPCTLWGSFAEQVFTACEAANGEMIICLVRFAKLKTYKDVRSISNAFNTSQILINPDLPEILEFKDALPKDCLALTLIESKPKSKIDEFPTGDFYLQFAKKTIKEVSEMFDVGRVKVLCTIYDIDRDWSWYYIVCKKCNKKVTKVVMTSLKAQLWCETCRAPITNVLARYKLHVKVMDSSGEMKLMLFDAMSSEIVGCPANNLLDGSFDEIEDPDILPDSIKNLIGKTYQYLVCVENENKRYQMHDSIDQCSLMLTYSEEPSEATTPSSKRSSDTSISPADNFSTTKKLCLDSIKIVKIKQEMVEKNNEAKVVGEKLNF | failed
MKFGKRHYRPQVDQMDCGVASLAMVFGYYGSYYFLAHLRELAKTTMDGTTALGLVKVAEEIGFETRAIKADMTLFDLPDLTFPFVAHVLKEGKLLHYYVVTGQDKDSIHIADPDPGVKLTKLPRERFEEEWTGVTLFMAPSPD | not failed
MKFKNILFDFDDTLVDFYDAEKKAFYNLAQKYNHQPTQQDFEHFKKVNQAHWEAFQQNKLTKDEVLSQRFINYFNDYQIHVNGKEADKCFRAELAMAPVKLFDHTLEVIQQLKLNHSLYIVTNGVTETQLRRIAQTQFNEIFQDVFISEKAGFQKPMTEFFDFVFEHIGENNRNQTLIVGDSLTSDILGGKNANISTCWFNIRQKENHTSIQPDYIINDLSEMIRIVE | failed
MKFLGRGRELARFKEELDAARPSLVILYGRRRVGKSRFLRELGKSRKEIYFQATRVSSLLNLEQFKIEVANILGALPVLESLPSWEGVFYYIAEHTRNNPGLLITIDEFPYLLDGDPALPSILQKFWDSGAPADGGLKLILCGSSISQMQDLLAERNPLYGRQTLSLDMKQLPLTDVARFFPKYDAEAIISTYAIFGGIPHYLQLFNPDVPLKDNVVRLLLTETGTLVDEPNTLLQTELHEPGFYSSVLAAIADGCNTTSEIASRLGVKVEKITSYAAKLVALHLISNTKSLDVDEKVRNRRFRLDDSLISFWHRFVRPSLTAISGGFGEEVYRQVVAPGFSEYMGIAFEAIALEYARIHIQEKLGLPAKELGQIWGHSDFDIDVAGRLLNGEYFYGDCKWTNADIDMGHLRQLRERSERTRYGRGTAGKHFLLFSKAGFSTDLIVFAKDETRRVHLLTPNDLVRPNQ | failed
MKFLTVSDDMNFLRQVNTLVAGKGDMDSVIIGEGDAKGLGSKVLYRAKKGTPFDAVSEGILKIAGNYDYIAIGSTEVGREIAGYLSFKTGFYTATEIFSLEFNGQKAHTKRFFYGGKTVIEEESDARILTVAPGVIEAKDLGTTPEIRDLEIGQSRIKITKFV | not failed
MKFLVGYSNDSSGKDALKLGVALAEMTQGKLIVCHIVAKTWHNIALAKFDEDYDQFLCDEAQKALDDAKLAVPSHIEARYIARTALSISEGLKQTAKELSVDCMVISGARIAIKGQFFSGTVADELLNQLSLPVALAPKGFAKNQGFTSPLTRLSCAVSGSDQSCNLAISAGEWAEIFNVPLRFVTFAVRDRDITPTAAGFDAENMVINEWREQIEAEYAQATQHWESDVPISLEIGDGPTWKESIQSIDWQASELLIVGTTTSGIFKQVLVGKNAEKIIRYASVPRLVLPRSTD | failed
MKFRRHTKAIRSLAGSLISHASAFAPALFAAIIAAIVVWVATNWRLERSLADERSVVAGELATISSRLQTNLNSNVKLLQGLAAGIAVDPAMGQNRFSKLAAQILQPDSQLRSFAAAPDMVVQWVYPETGNEKAIGLDYRKNEKQRAAAMLARNTHNIVLTGPVELVQGGTAFVVRCPVYIDDGNSQIFWGLLSGIIDIPRLYRDSGLGSTDLEIAISTTPEPNSPKQVFFGGLETFEKKPVVASVDMTYGRWSLAALPRHGWGQNNGIGTFELYASLLALCVVAPIVWVGFLTKSRQKTIEKLRLHKSKLVRARQRLEHLSLHDALTGLPNRRFVDQMISQPPRPDPQDRLILIHIDLDRFKEINDTKGHAGGDMVLQTTASRLADLTGPNDVAARIGGDEFVFASWSTDPEPKAAELARQIVDALQQTIFIDGAGYVVGASVGVAWETESARDRDLGQLLLNADLALYEAKKAGRGRAAVFTEELRSAAIHAKELADEFNQALERDELVAFFQPQFNANTLDIAGVEALARWDHPRKGLLGPNAFLDAAEKLGRSGDMDRLILQKALFELTRWDGLGMHIPRVSVNISARRLAQANLLAELSALPAAKDRLCFELLETISFDELQPALNEVIPAIKALGIEIEIDDFGTEHASIVSLLRFEPRRLKIDREIIKPIIASPSQRRLVSSIIEIGRSQNIDIVAEGVETMEHAKILKDLGCHLLQGYALARPMSSDQLIEFCRMKGTGTAKASR | failed
MKFSKLADQVWGEEPDDQVRSFVFMSNLDAQETANTMDVSVSVERIHADLCGNTELASELHYTPDEWDEAQGWVKINYPLIDDTASASLDVVLDATFQPLPGQPFEGEALTLIDALLHHAENVAASNPWKRTTFHTAHMHPPGSNADCDYCLVLQRRGYVKAHEEIQQTIPLPSGDWSAGEFTVVDVEGTAFPSALIPSIVELQHRAALDVPHGNLSVAPAQWDEHRLAQQSERILKTGTKLFTVLFAEGSTVAAMSSIAIPPGSNPDIAEQGLTIVHPDFRGRGLGTAVKLAGLSLLSRCHPEIQRVATSNAVDNHAMLAINRSIGATEIARTTLWEKKL | failed
MKFVHSETHRRHDPQFFIVRGQITRSTEQPERADRLLAAAQRRGHERVEARDFGEAILAEVHCPRYLDFLKNGYAQWRALPGASQEITPHVHPPREESGYPVSIIGRAGFHIADTSSPMGPHTWEAALAASHSACTAAQLVIEGAPAAYSLSRPPGHHATRDRAGGFCFLNHTAVAAQWLRHHVARVAILDVDVHHGNGTQDIFYERDDVLHVSLHADPAYFYPFFTGYAQETGRGIGAGCNLNLPLPIGTDDEAFLAALRIACRRVLDFKPDVVVVALGLDTYEGDPLNAFRITTPGFARIGQAIAGLALPTVLVQEGGYLSDELGENLATFLDGFCQHHRPTATLR | failed
MKFVKIALIVAVVAIALFAAKQTGILEIITDIKSLQDWIASFGVWGYAVFVAAFVFACVFLLPGSAFTIVAGIVFGPIKGGILALFSATLGAVAAFIVARFLLRNTIMKKFGDNPIFKKIDDGVAANGTSFLILTRLVPVFPFSLQNYAYGLTSLNLGTYALVSLLTMAPGAFIFAYMAGDIATNGVSVMLLVKFAVAGLVLFGMSLIPKYIAKKKGINMEELAK | failed
MKFYKKLIECIILLLFFVVFTLFIKYYFKPFLSIVILTILCSPIYNLLSKHKVFGDRINAVLSIIVINVMIFLAIFLIGNFIAQKLNIYLQHYHNVLDINKLPIIGESNVNILLNKINVFVDKLFNADFFKKSAVYTTDGILTYFVSIMSVYFILVDKYDIVNLAEKLFTKNKVHILMKKFSDIKSLLRVETFLVLITTIQTIIGFFVLGIEDCFMLGIICGILDILPYVGTIIIFIPLIIYKMYEKNYVTIFGLIALYIFLQVSRQIMETNFMSSKLKIHPLIILISVYIGIKAFGIIGLFIAPIYVITAKEIILSS | failed
MKGFAMLGINKLGWIEKERPVAGSYDAIVRPLAVSPCTSDIHTVFEGALGDRKNMILGHEAVGEVVEVGSEVKDFKPGDRVIVPCTTPDWRSLEVQAGFQQHSNGMLAGWKFSNFKDGVFGEYFHVNDADMNLAILPKDMPLENAVMITDMMTSGFHGAELADIQMGSSVVVIGIGAVGLMGIAGAKLRGAGRIIGVGSRPICVEAAKFYGATDILNYKNGHIVDQVMKLTNGEGVDRVIMAGGGSETLSQAVSMVKPGGIISNINYHGSGDALLIPRVEWGCGMAHKTIKGGLCPGGRLMKGFAMLGINKLGWIEKERPVAGSYDAIVRPLAVSPCTSDIHTVFEGALGDRKNMILGHEAVGEVVEVGSEVKDFKPGDRVIVPCTTPDWRSLEVQAGFQQHSNGMLAGWKFSNFKDGVFGEYFHVNDADMNLAILPKDMPLENAVMITDMMTSGFHGAELADIQMGSSVVVIGIGAVGLMGIAGAKLRGAGRIIGVGSRPICVEAAKFYGATDILNYKNGHIVDQVMKLTNGEGVDRVIMAGGGSETLSQAVSMVKPGGIISNINYHGSGDALLIPRVEWGCGMAHKTIKGGLCPGGRLRAEMLRDMVVYNRVDLSKLVTHVYHGFDHIEEALLLMKDKPKDLIKAVVIL | not failed
MKGIKSACALIVLTFFSALTQAATAVEMAKQAYFLIERDPLDLDQRNEASYLIQRANVLDGDEPWVAVAQSRLTLVSGYKVGQRHDRRAYEESAVSTARQQAERAVRNGPNLAMAHVQLAMVLIIQGELRTAWDHLNTADSLDEQSFYPWYLRTVIAIHHKDEKFAAEGFKEIESRASQKYQKRLLLHERMRLAKATKNLEERDRLHRKMIELDPDYAYAWGNYGSFLLGQKRYREAVHNLERAVELKPYGLAVSQLAEARRKLNQAF | failed
MKGKLGLFAAMLVLAGCATASEQLRVYTEQYPPYNMTTNGQPFAHSESEITGLCTDVLKAVLENAKVDYSIKLRDLSYGMNRAQRHEDHGIYCVSKTDEREPFFEWVGPLSSIKWTLFAKPGSSIKLDDLEDARDYRIGGYKGDVMTGYLEDKGFDVSAITNNGLNAKRLEQDQIDLWVADGLAGPYLAADASDVTGLEAVLVFRETPMYLAINKDSDPDLIKALNTAYQAMQESGEIDTISRSYGL | failed
MKGKLQHIHPLGMSIILGTLFARFATSMSIPFLAIYLTTVKGVSAGMTGAIIGTSALVGVFASFIGGNLSDRFGRKTIMLWSMIVWIFVFIGFSLADHVLSFFLLNALNGLCRSFFEPTSRALLSDLTKPEYRLLVYNLRYGAINVGVAIGPIVGLQIGSAKSTIPFLVAAGVYILYTAILAFQFKKYPMEKKKVSTEKPVTMLNAMRILRKDIVFLVALVGIILSNCGFSHLTTTVSQYFANAHIFEDGVKLFSYMLALNAIVVVIIQYPVIQMCKKYTPLTSIMVGTLFVSGGLFGFGIVESMLGAAVCTIIFTIGEVLMFSMTDVFIDDIAVAHLKGTYFGAMGFSGIGAVIGPWFGGVLLDYYGYQNGFAVFSALAIFSTVAFPVLLVTKGLSKKRYDRNSNIEMHAK | failed
MKGSLIIVGFFVLGALCGVYHLIPYDFTQSKLSFYALCALMFSVGVSVGNDPQTLRNFRSLNPRLIFLPVMTILGTLAGCAVVSLFLS | failed
MKGSRKGESRAKESKPREPGTRRCAKCGRLDFILKKKMGIKSGFTFWNLVFLLTLSCVKGFIYTCGGTLKGLNGTIESPGFPYGYPNGANCTWVIIAEERNRIQIVFQSFALEEEYDYLSLYDGHPHPTNFRTRLTGFHLPPPVTSTKSVFSLRLTSDFAVSAHGFKVYYEELQSSSCGNPGVPPKGVLYGTRFDVGDKIRYSCVTGYILDGHPQLTCIANSVNTASWDFPVPICRAEDACGGTMRGSSGIISSPGFPNEYHNNADCTWTIVAEPGDTISLIFTDFQMEEKYDYLEIEGSEPPTIWLSGMNIPPPIISNKNWLRLHFVTDSNHRYRGFSAPYQVKKAIDFKSRGFKLFPGKDNSNKFSLLNEGGIKTASNLCPDPGEPENGKRFGSDFR | failed
MKGTVGELGEFGLIRELTSRLTTTPAVRVGPGDDAAVVAAPDRRVVASTDILVEGRHFRRDWSTAYDVGRKAAAQNLADIAAMGAVPTALLLGLVVPAELPVTWPTELMDGLRDECQVAGASVVGGDVVRGDTITVSITALGDLRNQEPVTRAGAQPGDLVAVTGWLGWSAAGFAVLSRGFRSPRAFVEAHRRPEPPYHAGPAAAGLGATAMCDVSDGLIADLGHIAEASKVRIDVRSGQIDIPSQMNDIGQAVGVDPMQWVLTGGEDHAIVATFPPDVKLPARWKVIGEVLNPSALPQVTVDGAPWTSKGGWDHFGGDVES | failed

From a protein production outcome set (Wang et al. 2014)
